Here are results for 13 molecules from patent US20230235058A1 (OXFORD UNIVERSITY INNOVATION, published 2023).

Where a chain is given by its changes, count along the chain named. Names and notes keep the numbering of the source.

Sequences and labels used below:
B1: 4D5 (antibody, IgG1, V domains shown)
VH: QIQLVQSGPELKKPGETVKISCKASGYTFTTYGVSWVKQAPGKVLKWMGWINTYSGVPTYADDFKGRFAFSLETSASTAYLQISNLKNEDTATYFCAPVTTILHWYFDVWGTGTTVTVSS
VL: DIQMTQSPSSLSASLGERVSLTCRASQEISGYLSWLQQKPDGTIKRLIYAASTLDSGVPKRFRGSRSGSDYSLTISSLESEDFADYYCLQYASYPFTFGSGTKLEIK
notes: mIgG1
B2: 16F10 (antibody, IgG1, V domains shown)
VH: DVQLQESGPGLVKPSQSLSLTCSVTGYSITSGYYWNWIRQFPGNKLEWMGYISYDGSNNYNPSLKNRISITRDTSKNQFFLKLNSVTTEDTATYYCASIYGNYYAMDYWGQGTSVTVSS
VL: QIVLTQSPAIMSASPGEKVTMTCSASSSVSYMHWYQQKSGTSPKRWIYDTSKLASGVPARFSGSGSGTSYSLTISSMEAEDAATYYCQQWSSNPPTFGSGTKLEIK
notes: mIgG1
B3: 7A1 (antibody, IgG1, V domains shown)
VH: QVQLQQSGPELVKPGASVKISCKASGYAFSSSWMNWVKQRPGKGLEWIGRIYPGDGDTNYNGKFKGKATLTADKSSSTAYMQLSSLTSEDSAVYFCARRGYGYLAYWGQGTLVTVSA
VL: DIVMTQSHKFMSTSVGDRVSITCKASQDVSTAVAWYQQKPGQSPKLLIYSASYRYTGVPDRFTGSGSGTDFTFTISSVQAEDLAVYYCQQHYSTPWTFGGGTKLEIK
notes: mIgG1
B4: 15C6 (antibody, IgG1, V domains shown)
VH: B3 VH
VL: B3 VL with W96Y
notes: mIgG1
B5: 4H4 (antibody, IgG1, V domains shown)
VH: QVQLQQSGAELARPGASVKLSCKASGYTFTSYGISWVKQRTGQGLEWIGEIYPRSGNTYYNEKFKGKATLTADKSSSTAYMELRSLTSEDSAVYFCARRRGAGDGFDYWGQGTTLTVSS
VL: DIQMTQTTSSLSASLGDRVTISCSASQGISNYLNWYQQKPDGTVKLLIYYTSSLHSGVPSRFSGSGSGTDYSLTISNLEPEDIATYYCQQYSKLPFTFGSGTKLEIK
notes: mIgG1
B6: 8B4 (antibody, IgG1, V domains shown)
VH: B5 VH with S21P, N57T, R100I, G101S, A102S, D104S, F106V
VL: B5 VL with K93E, F96W, S100G
notes: mIgG1
B7: 4B1 (antibody, IgG1, V domains shown)
VH: B5 VH with K19R, I34L, S35I, V37L, N57S, K63W, S77N, Y80F, A102T, T114I
VL: B5 VL with S92I, K93E
notes: mIgG1
B8: 21C7 (antibody, IgG1, V domains shown)
VH: QIQLQQSGPELVKPGASVKISCKASGYAFSSSWMNWVKKRPGKGLEWIGRIYPGDGDANYNGKFKGKATLTADKSSSTAYMQLSSLTSEDSAVYFCAGEGHYYGSGYRWYLDVWGTGTTVTVSS
VL: DIQMTQSPASLSVSVGETVTITCRASENIYSNLAWYQQKQGKSPQLLVYAATNLADGVPSRFSGSGSGTQYSLKINSLQSEDFGSYYCQHFRGAPFTFGSGTKLEIK
notes: mIgG1
B9: 10B1 (antibody, IgG1, V domains shown)
VH: B5 VH with R99N, R100Y, A102S, G103S, D104Y, G105P, D107A, T114L, L115V, S119A
VL: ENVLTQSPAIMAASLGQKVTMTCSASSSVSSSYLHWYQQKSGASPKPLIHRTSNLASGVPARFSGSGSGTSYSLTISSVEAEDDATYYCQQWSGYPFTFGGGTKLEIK
B10: 16E1 (antibody, IgG1, V domains shown)
VH: B5 VH with R99G, R100Y, A102S, G103S, D104Y, D107A, T114L, L115V, S119A
VL: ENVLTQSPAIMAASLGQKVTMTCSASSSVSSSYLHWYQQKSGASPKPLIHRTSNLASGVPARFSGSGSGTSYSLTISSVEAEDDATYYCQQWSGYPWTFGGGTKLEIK
B11: 15B6 (antibody, IgG1, V domains shown)
VH: QVQLQQPGAELVKPGASVKLSCKASGYTFTSYWMHWVKQRPGQGLEWIGMIHPNSGSTNYNEKFKSKATLTVDKSSSTAYMQLSSLTSEDSAVYYCARKRGGLGDYWGQGTSVTVSS
VL: DIVLTQSPASLAVSLGQRATISCRASKSVSTSGYSYMHWYQQKPGQPPKLLIYLASNLESGVPARFSGSGSGTDFTLNIHPVEEEDAATYYCQHSRELPYTFGGGTKLEIK
B12: 11.5.1 D265A (antibody, V domains shown)
VH: EVQLQESGPSLVKPSQTLSLTCSVTGDSITSAYWNWIRKFPGNKLEYMGYISYSGSTYFNPSLKSRISITRNTSKNQYYLQLNSVTTEDTATYYCARSHYYGYYFDYWGHGTTLTVSS
VL: DIVLTQSPASLAVSLGQRATISCRASETIDSYGDSLMHWYQQKAGQPPKLLIYRASNLESGIPARFSGSGSRTDFTLTINPVEADDVATYYCQQTDEDPYTFGGGTKLEIK
B13: 831 (antibody, IgG1, V domains shown)
VH: DVQLQESGPDLVKPSQSLSVTCTVTGYSITSGYSWHWIRQFPGNKLEWMGYIHYSGSTNYNPSLKSRISITRDTSKNQFFLQLSSVTTEDTATYYCASGPHRYDGVWFAYWGQGTLVTVSS
VL: EIVLTQSPTTMAASPGEKITITCSASSSISSNYLHWYQQKPGFSPKLLIYRTSNLASGVPARFSGSGSGTSYSLTIGTMEAEDVATYYCQQGTNIPLTFGAGTKLEIK

Chain of chimeric BTLA of humanised-BTLA mice (human extracellular region, murine transmembrane and signaling … (Q7TSA3 other isoform, or with tags, fused parts or gaps mutant limits assumed): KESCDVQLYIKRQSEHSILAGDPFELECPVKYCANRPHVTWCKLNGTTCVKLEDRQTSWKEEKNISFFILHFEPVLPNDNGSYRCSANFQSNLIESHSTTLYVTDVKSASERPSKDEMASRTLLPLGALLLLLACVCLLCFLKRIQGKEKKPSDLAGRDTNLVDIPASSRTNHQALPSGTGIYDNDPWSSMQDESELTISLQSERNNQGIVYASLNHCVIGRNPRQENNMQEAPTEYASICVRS

The first experiment concerns the target T1, monomeric soluble human BTLA extracellular domain (BTLA K31-R151) (human, UniProt Q7Z6A9 31-151).
T1 construct: also called hBTLA; monomeric BTLA
Briefly: SPR 37C, mAb captured, BTLA ECD analyte.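 Further: Anti-BTLA mouse antibodies captured on a sensor chip via polyclonal anti-mouse IgG, isotype control antibody in reference channel, rates fitted after reference and blank subtraction to derive Kd.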
Procedure: Mouse antibody capture kit (GE Healthcare) was used to coat a Series S CMS Sensor Chip (GE Healthcare) with polyclonal anti-mouse IgG. Anti-BTLA antibody was then captured onto the biosensor surface and a negative control antibody (clone Mopc21; Biolegend) captured in the reference channel. […] Association and dissociation rates were fitted using BiaEvaluation Software (GE Healthcare) after reference and blank subtractions, and dissociation constants were calculated (FIG. 1b).
Regarding B1, the Kd (as a rule, the concentration at which binding is half-saturated) stood at 2930 nM; the koff – broadly, the rate constant with which the complex falls apart – came to 0.79 s⁻¹; the kon (commonly a measure of how fast the partners come together) came to 270000 M⁻¹ s⁻¹.

Turning to B2, the dissociation constant Kd worked out at 48.8 nM, the koff is 0.0283 s⁻¹ and the kon amounted to 581000 M⁻¹ s⁻¹.

On to B3, for which the Kd was determined as 40.2 nM, the dissociation rate constant (koff) was 0.0166 s⁻¹ and the kon is 413000 M⁻¹ s⁻¹.

In the case of B4, binding was put at a Kd of 718 nM, the koff amounted to 0.138 s⁻¹ and the kon stood at 193000 M⁻¹ s⁻¹.

Turning to B5, the Kd came out at 1710 nM, the off-rate constant (koff) is 0.347 s⁻¹ and the kon was 203000 M⁻¹ s⁻¹.

For B6, the Kd amounted to 8.17 nM, the dissociation rate constant (koff) came out at 0.0044 s⁻¹ and the kon turned out to be 538000 M⁻¹ s⁻¹.

Molecule B7 came in with a Kd of 3.21 nM, an off-rate constant (koff) of 0.00185 s⁻¹ and a kon of 577000 M⁻¹ s⁻¹.

B8 yielded a Kd of 43.6 nM, a koff of 0.0406 s⁻¹ and a kon of 930000 M⁻¹ s⁻¹.

A further experiment addresses chimeric BTLA of humanised-BTLA mice (human extracellular region, murine transmembrane and signaling … (human; mouse, UniProt Q7TSA3 184-306, limits assumed). Put plainly: cell-based or functional assay.
As for B3, the “AntiCD3/CD28 (CD4 T cell proliferation) repeat 1” value is 14 % inhibition, the “AntiCD3/CD28 (CD4 T cell proliferation) repeat 2” value came out at 17 % inhibition, the “AntiCD3/CD28 (CD69+ CD4 T cells) repeat 1” value worked out at 28 % inhibition and the “AntiCD3/CD28 (CD69+ CD4 T cells) repeat 2” value worked out at 38 % inhibition. Besides, the “MLR (CD4 T cell proliferation) repeat 1” value came to 23 % inhibition and the “MLR (CD4 T cell proliferation) repeat 2” value amounted to 29 % inhibition.

In the case of B4, the “AntiCD3/CD28 (CD4 T cell proliferation) repeat 1” value is 2 % inhibition, the “AntiCD3/CD28 (CD4 T cell proliferation) repeat 2” value is -2 % inhibition, the “AntiCD3/CD28 (CD69+ CD4 T cells) repeat 1” value was found to be 12 % inhibition and the “AntiCD3/CD28 (CD69+ CD4 T cells) repeat 2” value was found to be 19 % inhibition. Moreover, the “MLR (CD4 T cell proliferation) repeat 1” value was found to be 19 % inhibition and the “MLR (CD4 T cell proliferation) repeat 2” value turned out to be 8 % inhibition.

For the molecule B5, the “AntiCD3/CD28 (CD4 T cell proliferation) repeat 1” value worked out at 14 % inhibition, the “AntiCD3/CD28 (CD4 T cell proliferation) repeat 2” value stood at 22 % inhibition, the “AntiCD3/CD28 (CD69+ CD4 T cells) repeat 1” value was 43 % inhibition and the “AntiCD3/CD28 (CD69+ CD4 T cells) repeat 2” value worked out at 52 % inhibition. Besides, the “MLR (CD4 T cell proliferation) repeat 1” value turned out to be 10 % inhibition and the “MLR (CD4 T cell proliferation) repeat 2” value worked out at 17 % inhibition.

Take B9: the “AntiCD3/CD28 (CD4 T cell proliferation) repeat 1” value is 8 % inhibition, the “AntiCD3/CD28 (CD4 T cell proliferation) repeat 2” value worked out at 14 % inhibition, the “AntiCD3/CD28 (CD69+ CD4 T cells) repeat 1” value was determined as 24 % inhibition and the “AntiCD3/CD28 (CD69+ CD4 T cells) repeat 2” value stood at 36 % inhibition. In addition, the “MLR (CD4 T cell proliferation) repeat 1” value was determined as 16 % inhibition and the “MLR (CD4 T cell proliferation) repeat 2” value came out at 25 % inhibition.

With B10, the “AntiCD3/CD28 (CD4 T cell proliferation) repeat 1” value was found to be 4 % inhibition, the “AntiCD3/CD28 (CD4 T cell proliferation) repeat 2” value is 8 % inhibition, the “AntiCD3/CD28 (CD69+ CD4 T cells) repeat 1” value came to 9 % inhibition and the “AntiCD3/CD28 (CD69+ CD4 T cells) repeat 2” value was determined as 23 % inhibition. For the same molecule, the “MLR (CD4 T cell proliferation) repeat 1” value worked out at 33 % inhibition and the “MLR (CD4 T cell proliferation) repeat 2” value came to 8 % inhibition.

For B6, the “AntiCD3/CD28 (CD4 T cell proliferation) repeat 1” value is 20 % inhibition, the “AntiCD3/CD28 (CD4 T cell proliferation) repeat 2” value is 4 % inhibition, the “AntiCD3/CD28 (CD69+ CD4 T cells) repeat 1” value came to 51 % inhibition and the “AntiCD3/CD28 (CD69+ CD4 T cells) repeat 2” value was found to be 47 % inhibition. The “MLR (CD4 T cell proliferation) repeat 1” value stood at 33 % inhibition and the “MLR (CD4 T cell proliferation) repeat 2” value came out at 23 % inhibition.

As for B7, the “AntiCD3/CD28 (CD4 T cell proliferation) repeat 1” value turned out to be 14 % inhibition, the “AntiCD3/CD28 (CD4 T cell proliferation) repeat 2” value came to 18 % inhibition, the “AntiCD3/CD28 (CD69+ CD4 T cells) repeat 1” value is 47 % inhibition and the “AntiCD3/CD28 (CD69+ CD4 T cells) repeat 2” value came out at 41 % inhibition. Also, the “MLR (CD4 T cell proliferation) repeat 1” value was found to be 33 % inhibition and the “MLR (CD4 T cell proliferation) repeat 2” value was determined as 30 % inhibition.

Consider B11, for which the “AntiCD3/CD28 (CD4 T cell proliferation) repeat 1” value stood at 9 % inhibition, the “AntiCD3/CD28 (CD4 T cell proliferation) repeat 2” value turned out to be 16 % inhibition, the “AntiCD3/CD28 (CD69+ CD4 T cells) repeat 1” value is 13 % inhibition and the “AntiCD3/CD28 (CD69+ CD4 T cells) repeat 2” value amounted to 20 % inhibition. Further, the “MLR (CD4 T cell proliferation) repeat 1” value stood at 7 % inhibition and the “MLR (CD4 T cell proliferation) repeat 2” value stood at 13 % inhibition.

On to B12, for which the “AntiCD3/CD28 (CD4 T cell proliferation) repeat 1” value is -3 % inhibition, the “AntiCD3/CD28 (CD4 T cell proliferation) repeat 2” value is -9 % inhibition, the “AntiCD3/CD28 (CD69+ CD4 T cells) repeat 1” value was -47 % inhibition and the “AntiCD3/CD28 (CD69+ CD4 T cells) repeat 2” value was -26 % inhibition. For the same molecule, the “MLR (CD4 T cell proliferation) repeat 1” value is -3 % inhibition and the “MLR (CD4 T cell proliferation) repeat 2” value came out at 1 % inhibition.

As for B13, the “AntiCD3/CD28 (CD4 T cell proliferation) repeat 1” value was determined as 10 % inhibition, the “AntiCD3/CD28 (CD4 T cell proliferation) repeat 2” value came out at 8 % inhibition, the “AntiCD3/CD28 (CD69+ CD4 T cells) repeat 1” value was determined as 50 % inhibition and the “AntiCD3/CD28 (CD69+ CD4 T cells) repeat 2” value was determined as 53 % inhibition. In addition, the “MLR (CD4 T cell proliferation) repeat 1” value turned out to be 25 % inhibition and the “MLR (CD4 T cell proliferation) repeat 2” value was found to be 34 % inhibition.

Consider B8, for which the “AntiCD3/CD28 (CD4 T cell proliferation) repeat 1” value was 10 % inhibition, the “AntiCD3/CD28 (CD4 T cell proliferation) repeat 2” value was -4 % inhibition, the “AntiCD3/CD28 (CD69+ CD4 T cells) repeat 1” value was 39 % inhibition and the “AntiCD3/CD28 (CD69+ CD4 T cells) repeat 2” value was found to be 35 % inhibition. Also, the “MLR (CD4 T cell proliferation) repeat 1” value was 8 % inhibition and the “MLR (CD4 T cell proliferation) repeat 2” value was 17 % inhibition.

The next experiment has as its target full length human BTLA expressed on cells (human, UniProt Q7Z6A9 31-289). Put plainly: cell-based or functional assay.
As to B3, the “T cell reporter (NFκB signaling)” value was determined as 20 % inhibition.

For B4, the “T cell reporter (NFκB signaling)” value came to 9 % inhibition.

B5: the “T cell reporter (NFκB signaling)” value stood at 25 % inhibition.

Regarding B9, the “T cell reporter (NFκB signaling)” value turned out to be 27 % inhibition.

As for B10, the “T cell reporter (NFκB signaling)” value was found to be 22 % inhibition.

On to B6, for which the “T cell reporter (NFκB signaling)” value was 24 % inhibition.

As to B7, the “T cell reporter (NFκB signaling)” value was found to be 23 % inhibition.

As for B11, the “T cell reporter (NFκB signaling)” value worked out at 21 % inhibition.

As for B12, the “T cell reporter (NFκB signaling)” value was -13 % inhibition.

Take B13: the “T cell reporter (NFκB signaling)” value turned out to be 24 % inhibition.

As to B8, the “T cell reporter (NFκB signaling)” value was 23 % inhibition.
